# Results published in publication PMC4300955.
# Biological target: 53BP1 (UniProt Q12888)
# Test: co-immunoprecipitation, Western blot
# Conditions: reference: wild type MOF, 3-6 h after 10 Gy; sites T392
substance,measurement,value
"MOF (hMOF) (from UniProt Q9H7Z6) MOF-T392A, 3-6 h after 10 Gy",binding against the reference,stronger
